# Test results from paper PMC5624674.
# B1: α-FtsZ fusion protein (wild-type E. coli FtsZ) [E. coli] / α-FtsZ fusion protein (wild-type E. coli FtsZ) [E. coli] (parent)
# chain 1: MFEPMELTNDAVIKVIGVGGGGGNAVEHMVRERIEGVEFFAVNTDAQALRKTAVGQTIQIGSGITKGLGAGANPEVGRNAADEDRDALRAALEGADMVFIAAGMGGGTGTGAAPVVAEVAKDLGILTVAVVTKPFNFEGKKRMAFAEQGITELSKHVDSLITIPNDKLLKVLGRGISLLDAFGAANDVLKGAVQGIAELITRPGLMNVDFADVRTVMSEMGYAMMGSGVASGEDRAEEAAEMAISSPLLEDIDLSGARGVLVNITAGFDLRLDEFETVGNTIRAFASDNATVVIGTSLDPDMNDELRVTVVATGIGMDKRPEITLVTNKQVQQPVMDRYQQHGMAPLTQEQKPVAKVVNDNAPQTAKEPDYLDIPAFLRKQAD
# chain 2: B1 chain 1
# B2: unnamed (parent)
# chain 1: MKTLPVLPGQAASSRPSPVEIWQILLSRLLDQHYGLTLNDTPFADERVIEQHIEAGISLCDAVNFLVEKYALVRTDQPGFSACTRSQLINSIDILRARRATGLMTRDNYRTVNNITLGKYPEAK
# chain 2: B1 chain 1
# B3: unnamed (parent)
# chain 1: B2 chain 1
# chain 2: MLKKFRGMFSNDLSIDLGTANTLIYVKGQGIVLNEPSVVAIRQDRAGSPKSVAAVGHDAKQMLGRTPGNIAAIRPMKDGVIADFFVTEKMLQHFIKQVHSNSFMRPSPRVLVCVPVGATQVERRAIRESAQGAGAREVFLIEEPMAAAIGAGLPVSEATGSMVVDIGGGTTEVAVISLNGVVYSSSVRIGGDRFDEAIINYVRRNYGSLIGEATAERIKHEIGSAYPGDEVREIEVRGRNLAEGVPRGFTLNSNEILEALQEPLTGIVSAVMVALEQCPPELASDISERGMVLTGGGALLRNLDRLLMEETGIPVVVAEDPLTCVARGGGKALEMIDMHGGDLFSEE
# Variants of: B1
# Experiment: bacterial two-hybrid β-galactosidase assay
# Conditions: with α-FtsZ fusion protein (wild-type E. coli FtsZ) [E. coli]; 100 μM IPTG; parent: 320; read off a plot
row,Variant,response [Miller Units]
1,chain 1 MFEPMELTNDAVIKVIGVGGGGGNAVEHMVRERIEGVEFFAVNTDAQALRKTAVGQTIQIGSGITKGLGAGANPEVGRNAADEDRDALRAALEGADMVFIAAGMGGGTGTGAAPVVAEVAKDLGILTVAVVTKPFNFEGKKRMAFAEQGITELSKHVDSLITIPNDKLLKVLGRGISLLDASGAANDVLKGAVQGIAELITRPGLMNVDFADVRTVMSEMGYAMMGSGVASGEDRAEEAAEMAISSPLLEDIDLSGARGVLVNITAGFDLRLDEFETVGNTIRAFASDNATVVIGTSLDPDMNDELRVTVVATGIGMDKRPEITLVTNKQVQQPVMDRYQQHGMAPLTQEQKPVAKVVNDNAPQTAKEPDYLDIPAFLRKQAD [chain 1 F182S],260
2,chain 1 MFEPMELTNDAVIKVIGVGGGGGNAVEHMVRERIEGVEFFAVNTDAQALRKTAVGQTIQIGSGITKGLGAGANPEVGRNAADEDRDALRAALEGADMVFIAAGMGGGTGTGAAPVVAEVAKDLGILTVAVVTKPFNFEGKKRMAFAEQGITELSKHVDSLITIPNDKLLKVLGRGISLRDAFGAANDVLKGAVQGIAELITRPGLMNVDFADVRTVMSEMGYAMMGSGVASGEDRAEEAAEMAISSPLLEDIDLSGARGVLVNITAGFDLRLDEFETVGNTIRAFASDNATVVIGTSLDPDMNDELRVTVVATGIGMDKRPEITLVTNKQVQQPVMDRYQQHGMAPLTQEQKPVAKVVNDNAPQTAKEPDYLDIPAFLRKQAD [chain 1 L179R],250

# Variants of: B2
# Experiment: bacterial two-hybrid β-galactosidase assay
# Conditions: with partner chain of the complex shown; 25 μM IPTG; parent: 1.5e+03; read off a plot
row,Variant,response [Miller Units]
1,chain 1 MKTLPVLPGQAASSRPSPVEIWQILLSRLLDQHYGLTLNDTPFADERVIEQHIEAGISLCDAVNSLVEKYALVRTDQPGFSACTRSQLINSIDILRARRATGLMTRDNYRTVNNITLGKYPEAK [chain 1 F65S],75
2,chain 1 MKTLPVLPGQAASSCPSPVEIWQILLSRLLDQHYGLTLNDTPFADERVIEQHIEAGISLCDAVNFLVEKYALVRTDQPGFSACTRSQLINSIDILRARRATGLMTRDNYRTVNNITLGKYPEAK [chain 1 R15C],1300

# Same assay, conditions: with partner chain of the complex shown; 100 μM IPTG; parent: 2e+03; read off a plot
row,Variant,response [Miller Units]
1,chain 2 MFEPMELTNDAVIKVIGVGGGGGNAVEHMVRERIEGVEFFAVNTDAQALRKTAVGQTIQIGSGITKGLGAGANPEVGRNAADEDRDALRAALEGADMVFIAAGMGGGTGTGAAPVVAEVAKDLGILTVAVVTKPFNFEGKKRMAFAEQGITELSKHVDSLITIPNDKLLKVLGRGISLLDASGAANDVLKGAVQGIAELITRPGLMNVDFADVRTVMSEMGYAMMGSGVASGEDRAEEAAEMAISSPLLEDIDLSGARGVLVNITAGFDLRLDEFETVGNTIRAFASDNATVVIGTSLDPDMNDELRVTVVATGIGMDKRPEITLVTNKQVQQPVMDRYQQHGMAPLTQEQKPVAKVVNDNAPQTAKEPDYLDIPAFLRKQAD [chain 2 F182S],260
2,chain 2 MFEPMELTNDAVIKVIGVGGGGGNAVEHMVRERIEGVEFFAVNTDAQALRKTAVGQTIQIGSGITKGLGAGANPEVGRNAADEDRDALRAALEGADMVFIAAGMGGGTGTGAAPVVAEVAKDLGILTVAVVTKPFNFEGKKRMAFAEQGITELSKHVDSLITIPNDKLLKVLGRGISLRDAFGAANDVLKGAVQGIAELITRPGLMNVDFADVRTVMSEMGYAMMGSGVASGEDRAEEAAEMAISSPLLEDIDLSGARGVLVNITAGFDLRLDEFETVGNTIRAFASDNATVVIGTSLDPDMNDELRVTVVATGIGMDKRPEITLVTNKQVQQPVMDRYQQHGMAPLTQEQKPVAKVVNDNAPQTAKEPDYLDIPAFLRKQAD [chain 2 L179R],250

# Variants of: B3
# Experiment: bacterial two-hybrid β-galactosidase assay
# Conditions: with partner chain of the complex shown; 100 μM IPTG; parent: 310; read off a plot
row,Variant,response [Miller Units]
1,chain 1 F65S,330
2,chain 1 R15C,130
